Test results as given in US20180335433A1, “COMPOSITIONS TARGETING PKC-THETA AND USES AND METHODS OF TREATING PKC-THETA PATHOLOGIES, ADVERSE IMMUNE RESPONSES AND DISEASES” (La Jolla Institute for Allergy and Immunology, priority 2011, published 2018).

What was measured:
[1] = molecular target: T1, CD28 (Mus musculus, UniProt P31041); test: Co-immunoprecipitation of Myc-tagged V3 with CD28 in PKCθ−/− primary CD4+ T cells; assay type: binding; conditions: Myc-tagged V3 alone, retrovirus, CD3+CD28 mAbs 5 min
T1 construct: PKCθ^−/− primary CD4^+ T cells were infected with a retrovirus expressing a Myc-tagged V3 alone; endogenous in cells; host or cells: primary CD4+ T cells of PKCθ-/- mice, retrovirally transduced only with Myc-tagged V3
T1 sequence (P31041 20-218): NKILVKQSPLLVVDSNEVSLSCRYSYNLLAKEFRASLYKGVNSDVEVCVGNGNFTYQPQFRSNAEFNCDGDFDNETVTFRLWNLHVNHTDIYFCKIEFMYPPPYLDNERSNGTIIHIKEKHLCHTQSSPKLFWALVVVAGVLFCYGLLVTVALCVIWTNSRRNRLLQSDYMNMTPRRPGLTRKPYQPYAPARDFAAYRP
T1 sequence (P06240 2-509 partner): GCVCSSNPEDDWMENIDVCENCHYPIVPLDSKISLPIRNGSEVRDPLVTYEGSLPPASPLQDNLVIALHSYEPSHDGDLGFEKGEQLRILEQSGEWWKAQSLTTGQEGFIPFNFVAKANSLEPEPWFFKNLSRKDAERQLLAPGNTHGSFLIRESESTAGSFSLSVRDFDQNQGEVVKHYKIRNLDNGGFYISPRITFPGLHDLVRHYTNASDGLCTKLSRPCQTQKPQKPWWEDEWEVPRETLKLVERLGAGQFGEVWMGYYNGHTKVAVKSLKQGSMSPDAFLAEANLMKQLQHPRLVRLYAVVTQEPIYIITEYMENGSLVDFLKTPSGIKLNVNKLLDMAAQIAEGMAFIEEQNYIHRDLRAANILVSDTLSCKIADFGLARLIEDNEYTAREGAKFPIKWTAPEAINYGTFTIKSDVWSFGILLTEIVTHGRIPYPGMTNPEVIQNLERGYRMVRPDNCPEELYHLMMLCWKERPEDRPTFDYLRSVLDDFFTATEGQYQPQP
Procedure: (FIG. 2A) Schematic representation of PKCθ mutants. (FIG. 2B) Jurkat E6.1 cells transfected with the indicated PKCθ or PKCδ vectors were stimulated with anti-CD3/CD28 mAbs for 5 min. (FIG. 2C-2E) PKC CD4^+ T cells were infected with retrovirus expressing empty pMIG vector, WT PKCθ, or PKCθ−ΔV3 (FIG. 2C); WT PKCθ, PKCθ/δV3, or WT PKCδ (FIG. 2D); empty pMIG-vector or Myc-tagged V3 of PKCθ (FIG. 2E). Cells were harvested and restimulated with CD3+CD28 mAbs for 5 min. Cell lysates were prepared, immunoprecipitated with anti-CD28 mAb, resolved by SDS-PAGE, and immunoblotted with the indicated Abs. (FIG. 2F) Jurkat T cells cotransfected with Myc-tagged PKCθ−V3 plus CFP-tagged CD28 were mixed with SEE-pulsed Raji B cells at a 1:1 ratio. Conjugates were fixed and stained with a rabbit anti-Myc Ab plus a secondary Alexa 488-coupled antibody. Data shown is from four studies.
Retrovirally transduced CD4^+ T cells were stimulated with anti-CD3 and anti-CD28 mAbs for 5 min. Cell lysis in 1% digitonin lysis buffer, immunoprecipitation and Western blotting were carried out as described (Yokosuka, T. et al. Immunity 29, 589-601 (2008)).
To determine whether the V3 domain is sufficient for this interaction, PKCθ^−/− primary CD4^+ T cells were infected with a retrovirus expressing a Myc-tagged V3 alone. […]

[2] = test system: NFAT reporter gene; test: NFAT luciferase reporter assay in MCC-specific T hybridoma cells; assay type: cell-based
Procedure: (§1) (FIG. 6A) OT-II CD4^+ T cells were infected with retrovirus expressing Myc-tagged V3 domain, V3 mutated at P330/1/4/6A (V3-4PA), or PR motif-deleted V3 (V3-ΔPR). Infected cells (green) were harvested, stimulated, and fixed. Conjugates were stained with anti-Myc plus a secondary Alexa 555-coupled antibody (orange), and anti-PKCθ plus a secondary Alexa 647-coupled antibody (red). Cells were analyzed as in FIG. 1A. (FIG. 6B) Quantitative analysis of the results shown in (FIG. 6A) from 30-50 T-APC conjugates. ** p<0.05. (FIG. 6C) MCC-specific T hybridoma cells were cotransfected with indicated vector, together with RE/AP-Luc and β-Gal reporter plasmids. Cells were stimulated and analyzed as in FIG. 1C. […] Cytokine-producing cells were analyzed by intracellular staining 8 h after restimulation. […] Normalized luciferase activity was determined in triplicates.
The CD28 response element (RE/AP)- or NFAT-luciferase (Luc) reporter genes have been described (Coudronniere, N. et al. Proc Natl Acad Sci USA 97, 3394-3399 (2000)). […] The cells were the lysed and Luc activity was quantitated and normalized to the activity of a cotransfected β-galactosidase (β-Gal) reporter gene.
To determine whether ectopic V3 expression also interfered with PKCθ-dependent TCR/CD28 signaling, the effects of V3 on activation of reporter genes and on T cell differentiation into effector Th cells were analyzed. […]

[3] = test system: B6 CD4+ T cells, Th2 differentiation; test: In vitro Th2 differentiation of retrovirally transduced CD4+ T cells; assay type: cell-based, mouse; conditions: ectopic expression, Th2 differentiation conditions
Procedure: as §1, with “triplicates. […]” for “triplicates.”
Investigators have reported that the Th2 and Th17 immune responses are compromised in PKCθ^−/− mice, whereas the Th1 response remains relatively intact (Marsland, B. J. et al. J Exp Med 200, 181-189 (2004); Salek-Ardakani, S. et al. J Immunol 173, 6440-6447 (2004); Salek-Ardakani, S., et al. J Immunol 175, 7635-7641 (2005)). Therefore, ectopic expression of V3 was analyzed for inhibition of Th differentiation. […]

B1: V3 domain: amino acid 282-379 of human PKCθ with N-terminal Myc tag, expressed from pMIG retroviral vector (protein)
chain: GINQKLMAEALAMIESTQQARCLRDTEQIFREGPVEIGLPCSIKNEARPPCLPTPGKREPQGISWESPLDEVDKMCHLPEPELNKERPSLQIKLKIED
modifications: left off: small tags and cut ends
notes: amino acid 282-379 of human PKCθ with N-terminal Myc tag, expressed from pMIG retroviral vector
coimmunoprecipitation with CD28 [1]: coimmunoprecipitated with CD28 | inhibition of NFAT reporter gene activity stimulated by WT PKCθ ([2]; coexpressed at increasing levels together with WT PKCθ): inhibited in a dose-dependent manner | activation of NFAT reporter gene ([2]; expression of the V3 alone): did not activate | inhibition of Th2 differentiation [3]: ~75%
